Assay results as given in PMC12582121.

Molecular target: glyceraldehyde-3-phosphate dehydrogenase (GAPDH) (human) (UniProt P04406)
Assay: mass photometry; recombinant GAPDH without RNA; 100 nM GAPDH in binding buffer (10 mM Tris-HCl pH 8.0, 50 mM KCl, 2 mM DTT, 0.5 mM EDTA), 25 min at room temperature, diluted 1:10 for measurement; TwoMP mass photometer; monomer and tetramer peaks seen

Chain of glyceraldehyde-3-phosphate dehydrogenase (GAPDH), P04406 1-335 (enzyme; other documents disagree on this pair) (P04406 whole entry): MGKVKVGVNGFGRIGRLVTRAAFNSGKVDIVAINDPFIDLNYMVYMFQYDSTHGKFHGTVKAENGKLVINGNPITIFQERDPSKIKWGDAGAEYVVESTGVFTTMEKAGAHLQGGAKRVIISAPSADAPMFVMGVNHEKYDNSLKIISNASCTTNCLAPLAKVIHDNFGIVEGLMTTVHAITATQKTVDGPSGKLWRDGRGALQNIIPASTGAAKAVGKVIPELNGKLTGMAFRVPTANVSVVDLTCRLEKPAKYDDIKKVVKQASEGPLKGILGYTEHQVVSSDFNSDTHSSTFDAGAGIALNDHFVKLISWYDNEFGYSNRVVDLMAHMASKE

stoichiometry N: 4
Substance: glyceraldehyde-3-phosphate dehydrogenase (GAPDH), P04406 1-335 (enzyme; other documents disagree on this pair)
